The source of these data is paper PMC4784862, “DNA Sequence Determinants Controlling Affinity, Stability and Shape of DNA Complexes Bound by the Nucleoid Protein Fis”.

Conditions in all cases: protein: recombinant; chain copies: 2; label: 5'-32P
Data set [1] concerns the target T1, Fis WT (UniProt P0A6R3 1-98). The data set is described as follows: X-ray crystallography; 2.9 A, C2; EMSA: 20 mM Hepes pH 7.5, 0.15 M NaCl, 5% glycerol, 0.5 mg/ml BSA, 1 mM EDTA, 1 mM DTT, 0.1 nM 32P 27 bp probe, 50 ug/ml poly dI/dC; temperature not stated. On the technique in general: Mobility shift assays separate free from complexed probe on a gel.
The target of data set [2] is T1, Fis WT. The data set is described as follows: EMSA; t1/2 30 min; EMSA: 20 mM Hepes pH 7.5, 0.15 M NaCl, 5% glycerol, 0.5 mg/ml BSA, 1 mM EDTA, 1 mM DTT, 0.1 nM 32P 27 bp probe, 50 ug/ml poly dI/dC; temperature not stated.
Data set [3] addresses T1, Fis WT. The data set is described as follows: EMSA; affinity as F1, lifetime increased; EMSA: 20 mM Hepes pH 7.5, 0.15 M NaCl, 5% glycerol, 0.5 mg/ml BSA, 1 mM EDTA, 1 mM DTT, 0.1 nM 32P 27 bp probe, 50 ug/ml poly dI/dC; temperature not stated.
Data set [4] addresses Fis R71A (UniProt P0A6R3 1-98, R71A). The data set is described as follows: EMSA; EMSA: 20 mM Hepes pH 7.5, 0.15 M NaCl, 5% glycerol, 0.5 mg/ml BSA, 1 mM EDTA, 1 mM DTT, 0.1 nM 32P 27 bp probe, 50 ug/ml poly dI/dC; temperature not stated.
The target of data set [5] is T2, Fis T75A (UniProt P0A6R3 1-98, T75A). The data set is described as above.
T2 sequence (P0A6R3 whole entry T75A): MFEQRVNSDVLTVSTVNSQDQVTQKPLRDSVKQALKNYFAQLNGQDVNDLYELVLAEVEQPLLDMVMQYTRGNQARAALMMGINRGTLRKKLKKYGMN
The target of data set [6] is T1, Fis WT. The data set is described as follows: X-ray crystallography; 2.8 A; EMSA: 20 mM Hepes pH 7.5, 0.15 M NaCl, 5% glycerol, 0.5 mg/ml BSA, 1 mM EDTA, 1 mM DTT, 0.1 nM 32P 27 bp probe, 50 ug/ml poly dI/dC; temperature not stated.
Data set [7] addresses T1, Fis WT. The data set is described as follows: X-ray crystallography; 2.7 A; EMSA: 20 mM Hepes pH 7.5, 0.15 M NaCl, 5% glycerol, 0.5 mg/ml BSA, 1 mM EDTA, 1 mM DTT, 0.1 nM 32P 27 bp probe, 50 ug/ml poly dI/dC; temperature not stated.
The target in data set [8] is T1, Fis WT. The data set is described as follows: X-ray crystallography; 3.5 A, partially refined; EMSA: 20 mM Hepes pH 7.5, 0.15 M NaCl, 5% glycerol, 0.5 mg/ml BSA, 1 mM EDTA, 1 mM DTT, 0.1 nM 32P 27 bp probe, 50 ug/ml poly dI/dC; temperature not stated.
Data set [9] deals with T1, Fis WT. The data set is described as follows: EMSA; t1/2 44 min; EMSA: 20 mM Hepes pH 7.5, 0.15 M NaCl, 5% glycerol, 0.5 mg/ml BSA, 1 mM EDTA, 1 mM DTT, 0.1 nM 32P 27 bp probe, 50 ug/ml poly dI/dC; temperature not stated.
Data set [10] deals with T1, Fis WT. The data set is described as follows: EMSA; t1/2 38 min; EMSA: 20 mM Hepes pH 7.5, 0.15 M NaCl, 5% glycerol, 0.5 mg/ml BSA, 1 mM EDTA, 1 mM DTT, 0.1 nM 32P 27 bp probe, 50 ug/ml poly dI/dC; temperature not stated.
Data set [11] deals with T2, Fis T75A. The data set is described as follows: EMSA; error as printed; EMSA: 20 mM Hepes pH 7.5, 0.15 M NaCl, 5% glycerol, 0.5 mg/ml BSA, 1 mM EDTA, 1 mM DTT, 0.1 nM 32P 27 bp probe, 50 ug/ml poly dI/dC; temperature not stated.
In data set [12] the target is Fis N73A (UniProt P0A6R3 1-98, N73A). The data set is described as follows: EMSA; EMSA: 20 mM Hepes pH 7.5, 0.15 M NaCl, 5% glycerol, 0.5 mg/ml BSA, 1 mM EDTA, 1 mM DTT, 0.1 nM 32P 27 bp probe, 50 ug/ml poly dI/dC; temperature not stated.
Sequence of Fis N73A (P0A6R3 whole entry N73A): as the sequence (P0A6R3 whole entry T75A) above, with N73A, A75T counted along it
The target of data set [13] is T1, Fis WT. The data set is described as follows: EMSA; t1/2 41 min; Table 3 gives error 0.05; EMSA: 20 mM Hepes pH 7.5, 0.15 M NaCl, 5% glycerol, 0.5 mg/ml BSA, 1 mM EDTA, 1 mM DTT, 0.1 nM 32P 27 bp probe, 50 ug/ml poly dI/dC; temperature not stated.
Data set [14] has as its target T1, Fis WT. The data set is described as follows: EMSA; t1/2 25 min; EMSA: 20 mM Hepes pH 7.5, 0.15 M NaCl, 5% glycerol, 0.5 mg/ml BSA, 1 mM EDTA, 1 mM DTT, 0.1 nM 32P 27 bp probe, 50 ug/ml poly dI/dC; temperature not stated.
Data set [15] addresses T1, Fis WT. The data set is described as follows: EMSA; t1/2 22 min; EMSA: 20 mM Hepes pH 7.5, 0.15 M NaCl, 5% glycerol, 0.5 mg/ml BSA, 1 mM EDTA, 1 mM DTT, 0.1 nM 32P 27 bp probe, 50 ug/ml poly dI/dC; temperature not stated.
Data set [16] has as its target T1, Fis WT. The data set is described as follows: EMSA; t1/2 36 min; EMSA: 20 mM Hepes pH 7.5, 0.15 M NaCl, 5% glycerol, 0.5 mg/ml BSA, 1 mM EDTA, 1 mM DTT, 0.1 nM 32P 27 bp probe, 50 ug/ml poly dI/dC; temperature not stated.
In data set [17] the target is T1, Fis WT. The data set is described as follows: EMSA; t1/2 4 min; EMSA: 20 mM Hepes pH 7.5, 0.15 M NaCl, 5% glycerol, 0.5 mg/ml BSA, 1 mM EDTA, 1 mM DTT, 0.1 nM 32P 27 bp probe, 50 ug/ml poly dI/dC; temperature not stated.

For orientation: Kd means the constant that tells how readily two partners part at equilibrium.

T1 sequence (P0A6R3 whole entry): as the sequence (P0A6R3 whole entry T75A) above, with A75T counted along it
Sequence of Fis R71A (P0A6R3 whole entry R71A): as the sequence (P0A6R3 whole entry T75A) above, with R71A, A75T counted along it

B1: F35 (dsDNA)
DNA 1: AAATTAGTTTGAATCTCGAGCTAATTT
DNA 2: AAATTAGCTCGAGATTCAAACTAATTT
Consider B1, for which, in [1], the binding result is “binds”.

B2: F1±9C (dsDNA)
DNA 1: AAATCTGTTTGAATTTTGAGCAGATTT
DNA 2: AAATCTGCTCAAAATTCAAACAGATTT
For the molecule B2, the Kd in data set [2] was found to be 300 ± 100 pM.

B3: F1±8U (dsDNA)
DNA 1: AAATTUGTTTGAATTTTGAGCAAATTT
DNA 2: AAATTUGCTCAAAATTCAAACAAATTT
modifications: deoxyuridine for T at ±8 in DNA
Regarding B3, in data set [3], the binding result is “binds”.

B4: F32 (dsDNA)
DNA 1: AAATTTGGAGGAATTTTCTCCAAATTT
DNA 2: AAATTTGGAGAAAATTCCTCCAAATTT
For the molecule B4, the dissociation constant Kd in data set [4] stood at 73000 ± 11000 pM; in [5], 76000 ± 10000 pM. In data set [6], the binding result is listed as “binds”.

B5: F31 (dsDNA)
DNA 1: AAATTTGTAGGAATTTTCTGCAAATTT
DNA 2: AAATTTGCAGAAAATTCCTACAAATTT
As for B5, in data set [7], the binding result is listed as “binds”.

B6: F36 (dsDNA)
DNA 1: AAATTTGTTTGAATCTCGAGCAAATTT
DNA 2: AAATTTGCTCGAGATTCAAACAAATTT
Regarding B6, the binding result in [8] is recorded as “binds”.

B7: F1±10C (dsDNA)
DNA 1: AAACTTGTTTGAATTTTGAGCAAGTTT
DNA 2: AAACTTGCTCAAAATTCAAACAAGTTT
As for B7, the Kd in [9] came to 300 ± 100 pM.

B8: F1±10G (dsDNA)
DNA 1: AAAGTTGTTTGAATTTTGAGCAACTTT
DNA 2: AAAGTTGCTCAAAATTCAAACAACTTT
For B8, in data set [10], the Kd amounted to 500 ± 100 pM.

B9: F1 (±8T) (dsDNA)
DNA 1: AAATTTGTTTGAATTTTGAGCAAATTT
DNA 2: AAATTTGCTCAAAATTCAAACAAATTT
As for B9, the Kd stood at 300 ± 800 pM in [11], 500 ± 200 pM in data set [4], 29000 ± 200 pM in data set [12] and 200 ± 70 pM in data set [13].

B10: F1±9G (dsDNA)
DNA 1: AAATGTGTTTGAATTTTGAGCACATTT
DNA 2: AAATGTGCTCAAAATTCAAACACATTT
B10: the equilibrium dissociation constant (Kd) in data set [14] is 600 ± 200 pM.

B11: F1±9A (dsDNA)
DNA 1: AAATATGTTTGAATTTTGAGCATATTT
DNA 2: AAATATGCTCAAAATTCAAACATATTT
Turning to B11, the Kd in data set [15] amounted to 500 ± 200 pM.

B12: F1±10A (dsDNA)
DNA 1: AAAATTGTTTGAATTTTGAGCAATTTT
DNA 2: AAAATTGCTCAAAATTCAAACAATTTT
For the molecule B12, in [16], the dissociation constant Kd was 500 ± 100 pM.

B13: F18 (dsDNA)
DNA 1: AAATTTGTTGGAATTTTCAGCAAATTT
DNA 2: AAATTTGCTGAAAATTCCAACAAATTT
On to B13, for which the binding signal in [17] amounted to 10 fold weaker than F1.
